Here are results for 1 molecule from article PMC8024709, “DNA ligase I fidelity mediates the mutagenic ligation of pol β oxidized and mismatch nucleotide insertion products in base excision repair”.

In data set [1] the target is LIG1 E346A/E592A (EE/AA) low-fidelity mutant (Homo sapiens, UniProt P18858 1-919, E346A;E592A). In words: BLI; no Mg2+ or ATP listed in kinetics buffer; BLI (Octet QKe, streptavidin sensors, 40 nM DNA loaded, LIG1 10-2430 nM): Hepes pH 7.4, 200 mM NaCl, 0.5% BSA, 0.05% Tween 20, 20 °C; 1:1 binding model. The note with it: protein: recombinant; tags: His-tag; label: 3'-biotin on downstream strand (S2); 1-nt gap opposite template T; 34-nt template (S7 equals S4 reversed to 5'-3') with 17-nt upstream and 16-nt downstream strands; outer ends blunt. In general terms: Biolayer interferometry detects binding as a change in optical thickness at a sensor tip.

For data set [2], the target named is DNA ligase I (LIG1) wild-type (Homo sapiens, UniProt P18858 1-919). The description is as above. The note with it: protein: recombinant; tags: His-tag; label: 3'-biotin on downstream strand (S2); 1-nt gap opposite template T; 34-nt template (S7 equals S4 reversed to 5'-3') with 17-nt upstream and 16-nt downstream strands; outer ends blunt.
Chain of DNA ligase I (LIG1) wild-type (P18858 whole entry): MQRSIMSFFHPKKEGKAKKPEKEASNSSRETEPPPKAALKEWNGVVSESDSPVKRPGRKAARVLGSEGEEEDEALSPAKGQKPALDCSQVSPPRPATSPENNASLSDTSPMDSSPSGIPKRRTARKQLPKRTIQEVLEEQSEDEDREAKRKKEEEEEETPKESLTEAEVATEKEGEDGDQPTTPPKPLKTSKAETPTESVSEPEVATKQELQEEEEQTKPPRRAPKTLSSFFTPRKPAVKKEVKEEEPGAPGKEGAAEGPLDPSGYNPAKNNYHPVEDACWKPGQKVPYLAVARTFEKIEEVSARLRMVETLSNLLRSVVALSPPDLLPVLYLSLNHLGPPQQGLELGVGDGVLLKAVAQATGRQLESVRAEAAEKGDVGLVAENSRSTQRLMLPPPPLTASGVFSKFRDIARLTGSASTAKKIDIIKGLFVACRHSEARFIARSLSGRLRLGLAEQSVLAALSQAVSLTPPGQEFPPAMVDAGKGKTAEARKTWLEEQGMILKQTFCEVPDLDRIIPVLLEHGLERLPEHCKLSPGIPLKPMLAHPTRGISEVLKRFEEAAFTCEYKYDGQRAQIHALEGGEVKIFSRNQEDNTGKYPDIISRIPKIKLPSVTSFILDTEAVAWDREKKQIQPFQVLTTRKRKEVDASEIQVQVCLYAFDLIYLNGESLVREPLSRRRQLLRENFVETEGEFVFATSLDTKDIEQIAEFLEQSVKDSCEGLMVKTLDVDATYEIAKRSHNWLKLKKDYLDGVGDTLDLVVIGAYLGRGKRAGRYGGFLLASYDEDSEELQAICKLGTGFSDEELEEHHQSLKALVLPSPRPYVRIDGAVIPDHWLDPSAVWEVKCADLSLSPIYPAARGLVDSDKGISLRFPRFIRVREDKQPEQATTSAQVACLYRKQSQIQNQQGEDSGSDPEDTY

Chain of LIG1 E346A/E592A (EE/AA) low-fidelity mutant (P18858 whole entry E346A/E592A): as the sequence (P18858 whole entry) above, with E346A, E592A counted along it

B1: one-nucleotide-gap DNA, template T (BLI) (dsDNA)
DNA 1: CATGGGCGGCATGAACC
DNA 2: GAGGCCCATCCTCACC
DNA 3: GGTGAGGATGGGCCTCTGGTTCATGCCGCCCATG
For the molecule B1, the Kd (usually the concentration at which binding is half-saturated) is approximately 20 nM in data set [1] and approximately 83 nM in data set [2].
